Assays:
Musashi-1 (MSI1) [1] = molecular target: T1, Musashi-1 (MSI1) (Mus musculus (mouse), UniProt Q61474 1-362); experiment: EMSA; 1 ug protein incomplete shift (two bands), 1.5 ug complete shift of 80 fmol probe; REMSA 1x binding buffer (LightShift kit), 0.125 mg/ml BSA, 80 fmol RNA, 1.5 ug protein, 20 ul, 20 min at RT; native 6% PAGE in 0.5x TBE pH 7.5 at 4 C; protein dialyzed in 20 mM TBE, 5 mM DTT; conditions: protein: recombinant; tags: His tag; label: 3' biotin; single strand
Musashi-1 (MSI1) [2] = molecular target: T1, Musashi-1 (MSI1); experiment: competition; free probe restored at 1250x (100 pmol) unlabeled RNA; 1.5 ug protein, 80 fmol labeled N1; REMSA 1x binding buffer (LightShift kit), 0.125 mg/ml BSA, 80 fmol RNA, 1.5 ug protein, 20 ul, 20 min at RT; native 6% PAGE in 0.5x TBE pH 7.5 at 4 C; protein dialyzed in 20 mM TBE, 5 mM DTT; conditions: protein: recombinant; tags: His tag; label: none; single strand

T1 sequence (Q61474 whole entry): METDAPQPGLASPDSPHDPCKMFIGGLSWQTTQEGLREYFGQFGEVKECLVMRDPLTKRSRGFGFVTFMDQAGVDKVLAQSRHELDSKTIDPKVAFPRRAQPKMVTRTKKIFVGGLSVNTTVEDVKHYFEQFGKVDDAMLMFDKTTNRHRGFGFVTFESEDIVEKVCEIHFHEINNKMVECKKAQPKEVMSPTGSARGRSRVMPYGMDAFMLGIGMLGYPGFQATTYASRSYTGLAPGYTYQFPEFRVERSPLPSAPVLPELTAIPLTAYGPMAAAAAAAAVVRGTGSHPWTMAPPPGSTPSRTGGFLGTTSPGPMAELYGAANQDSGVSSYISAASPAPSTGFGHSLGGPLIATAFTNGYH

Binder	binding result (Musashi-1 (MSI1) [1])	binding result (Musashi-1 (MSI1) [2])
GUUUAUAGCUAGAUUAGUUUAGCUGAAAGUUAAGUAGUUUGCAA (ssRNA) [cDio2 3'UTR RNA probe nt 2582-2625]	binds	–
GUUUAUAGCUAGAUUAGUUUAGCUGAAAGUUAAGUAGUUUGCAA (ssRNA) [unlabeled cDio2 3'UTR RNA competitor]	–	binds

— PMC11301063, “The Musashi-1–type 2 deiodinase pathway regulates astrocyte proliferation”
